In US20240166753A1 (DRAGONFLY THERAPEUTICS, published 2024):

Experiments:
[1] = biological target: T1, CD33 expressed on MV4-11 human AML cells (human, UniProt P20138 18-364); assay: flow cytometry on MV4-11 cells
T1 construct: whole, on cells; also called cell-expressed CD33

[2] = biological target: T1, CD33 expressed on MV4-11 human AML cells; assay: flow cytometry on MV4-11 cells, MFI fold over background
[3] = biological target: T2, murine NKG2D overexpressed on EL4 cells (EL4-mNKG2D) (mouse, UniProt O54709 1-232); assay: flow cytometry, 60 ug/mL with four-fold dilutions, EL4-mNKG2D cells, goat anti-mouse PE
T2 construct: whole, on cells; also called EL4-mNKG2D cells
T2 sequence (looked up): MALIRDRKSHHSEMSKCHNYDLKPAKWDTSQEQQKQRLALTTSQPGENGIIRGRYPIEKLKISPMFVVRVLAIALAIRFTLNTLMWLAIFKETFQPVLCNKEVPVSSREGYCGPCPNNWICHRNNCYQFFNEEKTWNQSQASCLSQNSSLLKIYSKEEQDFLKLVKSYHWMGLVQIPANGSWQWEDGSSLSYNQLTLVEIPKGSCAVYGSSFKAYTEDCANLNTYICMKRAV

[4] = biological target: T3, Tyrp-1 on B16F10 melanoma cells (UniProt P07147 25-537, limits assumed); assay: flow cytometry, 60 ug/mL with four-fold dilutions, B16F10 tumor cells, goat anti-mouse PE
T3 construct: whole, on cells; B16F10 is a mouse melanoma line; also called Tyrp-1-positive B16F10 melanoma cells

T1 sequence (P20138 18-364): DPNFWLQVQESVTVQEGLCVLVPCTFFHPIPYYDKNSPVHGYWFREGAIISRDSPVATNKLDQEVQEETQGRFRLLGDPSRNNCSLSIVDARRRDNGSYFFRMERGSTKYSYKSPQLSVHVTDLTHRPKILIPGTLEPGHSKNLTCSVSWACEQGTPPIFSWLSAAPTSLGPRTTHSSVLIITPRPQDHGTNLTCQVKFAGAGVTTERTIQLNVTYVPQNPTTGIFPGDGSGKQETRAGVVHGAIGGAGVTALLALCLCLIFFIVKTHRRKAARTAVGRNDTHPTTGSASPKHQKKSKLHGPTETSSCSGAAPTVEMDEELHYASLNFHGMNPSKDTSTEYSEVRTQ

B1: CD33-TriNKET-C26 (ADI-28226 and a CD33-binding domain) (bispecific antibody, V domains shown)
VH 1: QVQLQQWGAGLLKPSETLSLTCAVYGGSFSGYYWSWIRQPPGKGLEWIGEIDHSGSTNYNPSLKSRVTISVDTSKNQFSLKLSSVTAADTAVYYCARARGPWSFDPWGQGTLVTVSS
VL 1: DIQMTQSPSTLSASVGDRVTITCRASQSISSWLAWYQQKPGKAPKLLIYKASSLESGVPSRFSGSGSGTEFTLTISSLQPDDFATYYCQQYGSFPITFGGGTKVEIK
VH 2: QVQLVQSGAEVKKPGASVKVSCKASGYTFTDYVVHWVRQAPGQGLEWMGYINPYNDGTKYNEKFKGRVTMTRDTSISTAYMELSRLRSDDTAVYYCARDYRYEVYGMDYWGQGTLVTVSS
VL 2: DIVLTQSPASLAVSPGQRATITCTASSSVNYIHWYQQKPGQPPKLLIYDTSKVASGVPARFSGSGSGTDFTLTINPVEANDTANYYCQQWRSYPLTFGQGTKLEIK
notes: also called C26-TriNKET-CD33
- binding result [1]: binds

B2: parental anti-CD33 monoclonal antibody (antibody, V domains shown)
VH: QVQLVQSGAEVKKPGASVKVSCKASGYTFTDYVVHWVRQAPGQGLEWMGYINPYNDGTKYNEKFKGRVTMTRDTSISTAYMELSRLRSDDTAVYYCARDYRYEVYGMDYWGQGTLVTVSS
VL: DIVLTQSPASLAVSPGQRATITCTASSSVNYIHWYQQKPGQPPKLLIYDTSKVASGVPARFSGSGSGTDFTLTINPVEANDTANYYCQQWRSYPLTFGQGTKLEIK
notes: also called parental monoclonal anti-CD33 antibody; parental anti-CD33 antibody
- binding result [2]: binds

B3: mcFAE-C26.99 TriNKET (bispecific antibody, mouse IgG2c)
heavy 1: QVQLQQWGAGLLKPSETLSLTCAVYGGSFSGYYWSWIRQPPGKGLEWIGEIDHSGSTNYNPSLKSRVTISVDTSKNQFSLKLSSVTAADTAVYYCARARGPWSFDPWGQGTLVTVSSAKTTAPSVYPLAPVCGGTTGSSVTLGCLVKGYFPEPVTLTWNSGSLSSGVHTFPALLQSGLYTLSSSVTVTSNTWPSQTITCNVAHPASSTKVDKKIEPRVPITQNPCPPLKECPPCAAPDLLGGPSVFIFPPKIKDVLMISLSPMVTCVVVDVSEDDPDVQISWFVNNVEVHTAQTQTHREDYNSTLRVVSALPIQHQDWMSGKEFKCKVNNRALPSPIEKTISKPRGPVRAPQVYVLPPPAEEMTKKEFSLTCMIKGFLPAEIAVDWTSNGRTEQNYKNTATVLDSDGSYFMYSRLRVQKSTWERGSLFACSVVHEGLHNHLTTKTISRSLGK
light 1: DIQMTQSPSTLSASVGDRVTITCRASQSISSWLAWYQQKPGKAPKLLIYKASSLESGVPSRFSGSGSGTEFTLTISSLQPDDFATYYCQQYGSFPITFGGGTKVEIKRADAAPTVSIFPPSSEQLTSGGASVVCFLNNFYPKDINVKWKIDGSERQNGVLNSWTDQDSKDSTYSMSSTLTLTKDEYERHNSYTCEATHKTSTSPIVKSFNRNEC
heavy 2: EVQLQQSGAELVRPGALVKLSCKTSGFNIKDYFLHWVRQRPDQGLEWIGWINPDNGNTVYDPKFQGTASLTADTSSNTVYLQLSGLTSEDTAVYFCTRRDYTYEKAALDYWGQGASVIVSSAKTTAPSVYPLAPVCGGTTGSSVTLGCLVKGYFPEPVTLTWNSGSLSSGVHTFPALLQSGLYTLSSSVTVTSNTWPSQTITCNVAHPASSTKVDKKIEPRVPITQNPCPPLKECPPCAAPDLLGGPSVFIFPPKIKDVLMISLSPMVTCVVVDVSEDDPDVQISWFVNNVEVHTAQTQTHREDYNSTLRVVSALPIQHQDWMSGKEFKCKVNNRALPSPIEKTISKPRGPVRAPQVYVLPPPAEEMTKKEFSLTCMITGFLPAEIAVDWTSNGRTEQNYKNTATVLDSDGSYLMYSKLTVQKSTWERGSLFACSVVHEGLHNHLTTKTISRSLGK
light 2: DIQMSQSPASLSASVGETVTITCRASGNIYNYLAWYQQKQGKSPHLLVYDAKTLADGVPSRFSGSGSGTQYSLKISSLQTEDSGNYYCQHFWSLPFTFGSGTKLEIKRADAAPTVSIFPPSSEQLTSGGASVVCFLNNFYPKDINVKWKIDGSERQNGVLNSWTDQDSKDSTYSMSSTLTLTKDEYERHNSYTCEATHKTSTSPIVKSFNRNEC
notes: Heterodimer of mC26 and TA99 with mouse IgG2c as the Fc; also called murine cFAE-C26.99 TriNKET; TA99 TriNKET
- binding result [3]: binds
- binding result [4]: binds
